These results are taken from patent US20240307536A1.

Holding throughout (experiment): cell-based or functional assay
In assay [1] the target is MHC class I on MV411 cells (human).
The target in assay [2] is CXCR3 on SAK cells (human) (UniProt P49682).
Assay [3] deals with CXCR2 on SAK cells (human) (UniProt P25025).
Chain of UniProt P25025 (P25025 whole entry): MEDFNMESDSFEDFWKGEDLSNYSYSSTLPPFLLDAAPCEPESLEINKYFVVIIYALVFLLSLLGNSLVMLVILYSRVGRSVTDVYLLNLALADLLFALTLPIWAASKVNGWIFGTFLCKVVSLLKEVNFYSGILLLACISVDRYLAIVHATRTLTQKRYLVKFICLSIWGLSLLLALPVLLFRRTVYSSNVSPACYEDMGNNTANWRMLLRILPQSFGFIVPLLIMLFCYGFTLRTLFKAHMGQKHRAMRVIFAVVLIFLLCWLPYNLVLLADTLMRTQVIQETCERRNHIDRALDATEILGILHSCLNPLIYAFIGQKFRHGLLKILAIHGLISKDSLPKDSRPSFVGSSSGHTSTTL

Chain of UniProt P49682 (P49682 whole entry): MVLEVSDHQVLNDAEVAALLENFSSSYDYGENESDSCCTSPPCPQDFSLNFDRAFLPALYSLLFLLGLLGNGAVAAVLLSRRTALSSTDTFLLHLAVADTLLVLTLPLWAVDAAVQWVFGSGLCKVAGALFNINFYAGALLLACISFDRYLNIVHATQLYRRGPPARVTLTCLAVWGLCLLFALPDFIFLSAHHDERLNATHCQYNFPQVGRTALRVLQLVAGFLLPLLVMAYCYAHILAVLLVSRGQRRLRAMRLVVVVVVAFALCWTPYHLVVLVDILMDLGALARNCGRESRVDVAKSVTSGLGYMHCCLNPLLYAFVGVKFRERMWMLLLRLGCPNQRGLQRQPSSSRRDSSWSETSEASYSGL

Consider “anti-MHC I antibody (W6/32 clone, Biolegend)”, for which, in assay [1], the cytotoxic activity of SAK cells against MV411 cells kept in the presence of 1 ug/ml anti-MHC I antibody, CFSE-based cytotoxicity assay is over 40%. In turn, “IP-10 (PeproTech EC) (from UniProt P02778 22-98) (ligand)” gave a Transwell migration of SAK cells within four hours, percentage of the input cells (500 ng/ml IP-10) in assay [2] of 30%. As for “rhIL-8 (PeproTech EC) (from UniProt P10145 28-99) (ligand)”, the Transwell migration of SAK cells within four hours, percentage of the input cells (100 ng/mL IL-8) in assay [3] was found to be 3%.
